The data set has as its target T1, SPRTN-EQ (catalytically inactive) (UniProt Q9H040 1-489, E112Q).
T1 sequence: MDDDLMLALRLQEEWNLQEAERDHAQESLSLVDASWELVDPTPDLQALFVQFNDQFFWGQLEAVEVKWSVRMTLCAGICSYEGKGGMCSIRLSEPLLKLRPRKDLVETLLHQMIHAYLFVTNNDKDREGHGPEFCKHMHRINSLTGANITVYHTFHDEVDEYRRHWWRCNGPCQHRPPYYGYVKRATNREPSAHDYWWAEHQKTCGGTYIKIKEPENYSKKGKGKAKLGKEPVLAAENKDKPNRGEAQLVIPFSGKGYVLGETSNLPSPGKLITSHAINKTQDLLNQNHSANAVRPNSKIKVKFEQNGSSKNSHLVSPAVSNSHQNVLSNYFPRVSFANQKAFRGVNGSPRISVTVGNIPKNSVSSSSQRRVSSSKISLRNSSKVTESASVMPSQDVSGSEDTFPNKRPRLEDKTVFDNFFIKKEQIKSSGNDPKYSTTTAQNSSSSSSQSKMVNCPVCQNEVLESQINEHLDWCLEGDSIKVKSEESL
The experiment in a line: EMSA.

This note sets out measurements from paper PMC8219891.

B1: dsDPC (substrate f) (dsDNA)
DNA 1: CCCAAAAAAAAAAATAAAAAAAAAAAACCC
DNA 2: GGGTTTTTTTTTTTTATTTTTTTTTTTGGG
modifications: dT15 of strand 1 covalently conjugated to protein G; strand 1 3'-phosphate
On to B1, for which the binding result is reported as “binds”.

B2: Junction-DPC (substrate e) (mixed)
DNA 1: CCCAAAAAAAAAAATAAAAAAAAAAAACCC
DNA 2: GGGTTTTTTTTTTTT
modifications: dT15 of strand 1 covalently conjugated to protein G; strand 1 3'-phosphate
Take B2: the binding result is “binds”.
